Source: PMC5524822

Target: HIV-1 Env of virus AT1 with the I371V mutation (HIV-1)

In the case of VRC01 (antibody), the IC50 of neutralisation of the virus in TZM-bl cells (luciferase reporter) is reported as 0.0724 µg/mL.
